From paper PMC12319226 (Frontiers in Bioinformatics, 2025)

T1: fHbp m002256 (Neisseria meningitidis, engineered fHbp …, chimera)
T1 chain: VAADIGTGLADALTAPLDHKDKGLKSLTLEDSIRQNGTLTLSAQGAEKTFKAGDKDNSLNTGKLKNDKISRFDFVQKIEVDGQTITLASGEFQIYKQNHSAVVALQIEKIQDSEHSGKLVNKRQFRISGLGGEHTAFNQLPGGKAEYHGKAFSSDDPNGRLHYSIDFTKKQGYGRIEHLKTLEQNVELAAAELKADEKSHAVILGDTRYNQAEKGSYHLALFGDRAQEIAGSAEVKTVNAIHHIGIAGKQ

T2: fHbp m002333 (Neisseria meningitidis, engineered fHbp …, chimera)
T2 chain: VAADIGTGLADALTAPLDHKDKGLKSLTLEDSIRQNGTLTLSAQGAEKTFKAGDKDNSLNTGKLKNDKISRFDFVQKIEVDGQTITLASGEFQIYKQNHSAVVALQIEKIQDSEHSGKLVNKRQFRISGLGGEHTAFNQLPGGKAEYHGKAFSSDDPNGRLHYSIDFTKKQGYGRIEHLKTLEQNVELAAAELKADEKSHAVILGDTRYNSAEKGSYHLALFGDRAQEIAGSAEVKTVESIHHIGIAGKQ

T3: fHbp m001180 (Neisseria meningitidis fHbp v3.28-based …, point mutant)
T3 chain: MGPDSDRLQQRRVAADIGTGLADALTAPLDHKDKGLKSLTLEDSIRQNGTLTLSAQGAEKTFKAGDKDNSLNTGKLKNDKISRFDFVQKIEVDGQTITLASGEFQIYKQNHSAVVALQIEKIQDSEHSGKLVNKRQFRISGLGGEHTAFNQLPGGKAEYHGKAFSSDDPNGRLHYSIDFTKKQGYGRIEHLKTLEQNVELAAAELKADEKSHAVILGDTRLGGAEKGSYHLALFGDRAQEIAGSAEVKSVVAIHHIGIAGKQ

T4: fHbp m001524 (Neisseria meningitidis, fHbp …, point mutant)
T4 chain: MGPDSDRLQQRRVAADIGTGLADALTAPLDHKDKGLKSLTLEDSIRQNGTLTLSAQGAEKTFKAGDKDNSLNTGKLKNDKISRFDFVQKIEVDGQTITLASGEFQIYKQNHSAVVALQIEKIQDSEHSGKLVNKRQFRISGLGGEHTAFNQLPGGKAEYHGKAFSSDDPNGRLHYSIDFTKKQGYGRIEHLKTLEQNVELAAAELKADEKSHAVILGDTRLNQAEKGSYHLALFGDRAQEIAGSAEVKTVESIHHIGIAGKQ

T5: fHbp m001531 (Neisseria meningitidis, fHbp …, point mutant)
T5 chain: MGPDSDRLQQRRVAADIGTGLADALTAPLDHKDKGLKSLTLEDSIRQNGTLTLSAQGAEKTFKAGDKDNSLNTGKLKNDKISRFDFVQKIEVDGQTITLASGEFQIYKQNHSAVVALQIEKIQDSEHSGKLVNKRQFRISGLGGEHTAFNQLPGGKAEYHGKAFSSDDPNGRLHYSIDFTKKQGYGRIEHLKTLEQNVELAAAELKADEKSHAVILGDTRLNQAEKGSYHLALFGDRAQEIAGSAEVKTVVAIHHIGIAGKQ

T6: fHbp m001607 (Neisseria meningitidis, fHbp …, point mutant)
T6 chain: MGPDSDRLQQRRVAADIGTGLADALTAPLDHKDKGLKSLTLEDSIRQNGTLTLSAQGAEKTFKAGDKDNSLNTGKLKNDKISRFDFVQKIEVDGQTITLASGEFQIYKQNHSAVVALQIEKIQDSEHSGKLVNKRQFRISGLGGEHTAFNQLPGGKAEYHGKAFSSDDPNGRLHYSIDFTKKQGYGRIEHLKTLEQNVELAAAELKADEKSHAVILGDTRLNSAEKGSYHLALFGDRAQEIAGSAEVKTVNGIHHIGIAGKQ

T7: fHbp m001621 (Neisseria meningitidis, fHbp …, point mutant)
T7 chain: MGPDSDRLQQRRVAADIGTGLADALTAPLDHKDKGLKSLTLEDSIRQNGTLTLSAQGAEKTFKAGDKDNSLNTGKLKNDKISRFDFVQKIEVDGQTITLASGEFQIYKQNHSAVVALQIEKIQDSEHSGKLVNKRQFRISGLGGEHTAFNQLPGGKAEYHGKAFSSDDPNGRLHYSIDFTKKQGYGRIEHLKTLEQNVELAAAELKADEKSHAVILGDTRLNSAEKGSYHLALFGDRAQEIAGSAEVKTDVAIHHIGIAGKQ

T8: fHbp m001672 (Neisseria meningitidis, fHbp …, point mutant)
T8 chain: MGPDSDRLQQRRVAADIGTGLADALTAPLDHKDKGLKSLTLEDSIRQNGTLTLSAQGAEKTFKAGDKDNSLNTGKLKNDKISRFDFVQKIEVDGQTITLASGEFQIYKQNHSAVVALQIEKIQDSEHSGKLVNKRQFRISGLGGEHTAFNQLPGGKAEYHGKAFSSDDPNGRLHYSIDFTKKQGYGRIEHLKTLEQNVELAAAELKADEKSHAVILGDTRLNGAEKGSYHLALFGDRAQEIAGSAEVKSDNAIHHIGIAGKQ

T9: fHbp mutant 0018 (Neisseria meningitidis, fHbp v1.1 mutant, point mutant)
T9 chain: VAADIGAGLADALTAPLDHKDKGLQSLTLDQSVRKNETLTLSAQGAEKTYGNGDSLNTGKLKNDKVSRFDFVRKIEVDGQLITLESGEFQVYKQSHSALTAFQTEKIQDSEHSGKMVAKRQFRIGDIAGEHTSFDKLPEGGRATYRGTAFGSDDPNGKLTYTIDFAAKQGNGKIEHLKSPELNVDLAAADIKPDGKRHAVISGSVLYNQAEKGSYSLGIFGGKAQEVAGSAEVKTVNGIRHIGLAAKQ


Key:
Experiment in all cases: BLI
Conditions in all cases: both partners purified
fHbp m002256 = molecular target: T1, fHbp m002256
fHbp m002333 = molecular target: T2, fHbp m002333
fHbp m001180 = molecular target: T3, fHbp m001180
fHbp m001524 = molecular target: T4, fHbp m001524
fHbp m001531 = molecular target: T5, fHbp m001531
fHbp m001607 = molecular target: T6, fHbp m001607
fHbp m001621 = molecular target: T7, fHbp m001621
fHbp m001672 = molecular target: T8, fHbp m001672
fHbp mutant 0018 = molecular target: T9, fHbp mutant 0018

Binder	Kd (fHbp m002256) [nM]	koff (fHbp m002256) [s⁻¹]	kon (fHbp m002256) [M⁻¹ s⁻¹]	Kd (fHbp m002333) [nM]	koff (fHbp m002333) [s⁻¹]	kon (fHbp m002333) [M⁻¹ s⁻¹]	Kd (fHbp m001180) [nM]	koff (fHbp m001180) [s⁻¹]	kon (fHbp m001180) [M⁻¹ s⁻¹]	Kd (fHbp m001524) [nM]	koff (fHbp m001524) [s⁻¹]	kon (fHbp m001524) [M⁻¹ s⁻¹]	Kd (fHbp m001531) [nM]	koff (fHbp m001531) [s⁻¹]	kon (fHbp m001531) [M⁻¹ s⁻¹]	Kd (fHbp m001607) [nM]	koff (fHbp m001607) [s⁻¹]	kon (fHbp m001607) [M⁻¹ s⁻¹]	Kd (fHbp m001621) [nM]	koff (fHbp m001621) [s⁻¹]	also measured
chimeric antibody h12C1 (antibody, V domains shown, also called humanized 12C1; source: Expi293, purified (MabSelect SuRe, SEC); copies: 2 + 2) VH: QVQLQESGPELVKPGASVKISCKASGYSFSDYNMSWVKQSNGKSLEWIGIIDPKYGTINYNQKFKGKATLTVDQASSTAYMQLNSLTSEDSAVYYCVRDYYGSSYFDYWGQGTTLTVSS VL: DIVLTQSPSSIYASLGERVTLTCKASQDIHNYLNWFQQKPGKSPKTLIYRANRLVDGVPSRFSGGGSGQDYSLTISSLEFEDIGIYYCLQYDEFPPTFGGGTRLEIK	43.6	0.0102	235000 ± 5060	166	0.01686 ± 0.000166	102000 ± 4590	69.9	0.0158	227000 ± 3250	0.701	0.000117	167000 ± 1950	0.717	0.00022	307400 ± 2940	32.9	0.012	366000 ± 13300	54	0.0115	kon (fHbp m001621): 214000 ± 5580 M⁻¹ s⁻¹; Kd (fHbp m001672): 117 nM; koff (fHbp m001672): 0.01791 ± 0.000106 s⁻¹; kon (fHbp m001672): 154000 ± 3920 M⁻¹ s⁻¹
mAb 4B3 (human) (antibody, V domains shown, also called 4B3-2; source: Expi293, purified (MabSelect SuRe, SEC); copies: 2 + 2) VH: QVQLVQSGGGLVKPGGSLRLSCAASGFPFSSYYMSWIRQAPGKGLEWVSDINNSGNVKEYADFVKGRLTISRDNVKNSMYLHMNSLRVEDTAVYYCARNRGRFDVWGQGTLVTVSA VL: EIVMTQSPGTLSLSPGETATLSCRASQMISSPFLAWYQQRRGQAPRLLIYGASTRATDTPDRFRGSGSGTDFILTISRLEPEDFAVYYCQYYDDSPFTFGQGTKLEIK	–	–	–	–	–	–	–	–	–	–	–	–	–	–	–	–	–	–	–	–	Kd (fHbp mutant 0018): 2.36 nM; koff (fHbp mutant 0018): 0.00101 s⁻¹; kon (fHbp mutant 0018): 426800 ± 2190 M⁻¹ s⁻¹
mAb 1E6 (human) (antibody, V domains shown, source: Expi293, purified (MabSelect SuRe, SEC); copies: 2 + 2) VH: EVQLVQSGAEVKKPGSSVKVSCKASGGTVIDYPITWVRQAPGQGLEWVGGFVPLFRTSNYGQKFQGRVTITADKSTSTASMELNSLTSEDTAIYYCARGDTAMGPFDYWGQGTLVTVSS VL: SYVLTQPPSLSVAPGKTATLTCGGNNIAGKTVHWYQQRPGQAPVLVISYDSDRPSGIPERFSGSNSANTATLTISRVEAGDEADYYCQVWDRNSDHWVFGGGTKLTVL	0.23	0.000106	460600 ± 4450	0.0267	6.18e-06	231300 ± 2110	0.574	0.000278	485200 ± 1980	0.742	0.000167	224700 ± 1680	0.546	0.0002	367300 ± 1990	0.242	0.000117	484000 ± 5230	0.464	0.000174	Kd (fHbp mutant 0018): 1.04 nM; koff (fHbp mutant 0018): 0.000558 s⁻¹; kon (fHbp mutant 0018): 538300 ± 3080 M⁻¹ s⁻¹; kon (fHbp m001621): 375400 ± 1900 M⁻¹ s⁻¹; Kd (fHbp m001672): 1 nM; koff (fHbp m001672): 0.00032 s⁻¹; kon (fHbp m001672): 320000 ± 1490 M⁻¹ s⁻¹
